The values below come from US20160068860A1, “TRANSGENIC PLANTS” (CONSEJO SUPERIOR DE INVESTIGACIONES CIENTIFICAS (CSIC), priority 2013, published 2016).

For data set [1], the target named is T1, PYL4C176R F130Y (AtPYL F130Y and C176R).
T1 chain: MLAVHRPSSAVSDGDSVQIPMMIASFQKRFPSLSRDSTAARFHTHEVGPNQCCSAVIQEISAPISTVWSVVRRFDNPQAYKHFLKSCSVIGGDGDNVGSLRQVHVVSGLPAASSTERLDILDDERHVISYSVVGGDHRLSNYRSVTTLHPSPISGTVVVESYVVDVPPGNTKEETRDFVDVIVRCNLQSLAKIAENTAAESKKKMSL

Data set [2] concerns the target T2, PYL4H82R V97A (AtPYL H82 and V97A).
T2 chain: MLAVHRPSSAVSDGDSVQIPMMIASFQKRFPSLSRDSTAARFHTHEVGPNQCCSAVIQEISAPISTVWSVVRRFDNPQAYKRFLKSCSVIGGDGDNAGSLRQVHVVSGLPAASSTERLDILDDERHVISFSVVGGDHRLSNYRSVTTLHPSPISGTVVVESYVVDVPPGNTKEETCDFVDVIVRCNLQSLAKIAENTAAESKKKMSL

In data set [3] the target is T3, PP2CA (clade A protein phosphatase 2C, At3g11410) (Arabidopsis thaliana, UniProt P49598 1-399, limits assumed).
T3 sequence (looked up): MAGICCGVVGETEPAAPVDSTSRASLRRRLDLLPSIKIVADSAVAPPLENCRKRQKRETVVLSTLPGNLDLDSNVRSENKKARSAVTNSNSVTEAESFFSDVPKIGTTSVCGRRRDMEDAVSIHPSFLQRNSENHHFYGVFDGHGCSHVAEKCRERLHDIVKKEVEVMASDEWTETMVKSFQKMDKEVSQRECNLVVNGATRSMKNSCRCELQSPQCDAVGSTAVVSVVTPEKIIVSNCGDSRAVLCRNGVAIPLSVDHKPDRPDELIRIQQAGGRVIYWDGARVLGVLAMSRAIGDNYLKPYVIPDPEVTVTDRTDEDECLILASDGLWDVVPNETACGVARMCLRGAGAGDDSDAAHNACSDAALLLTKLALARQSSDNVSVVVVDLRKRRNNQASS
Kind of data set: cell-based or functional assay.

Data set [4] has as its target T4, HAB1 (clade A protein phosphatase 2C) (Arabidopsis thaliana, UniProt Q9CAJ0 23-511, limits assumed).
T4 sequence (looked up): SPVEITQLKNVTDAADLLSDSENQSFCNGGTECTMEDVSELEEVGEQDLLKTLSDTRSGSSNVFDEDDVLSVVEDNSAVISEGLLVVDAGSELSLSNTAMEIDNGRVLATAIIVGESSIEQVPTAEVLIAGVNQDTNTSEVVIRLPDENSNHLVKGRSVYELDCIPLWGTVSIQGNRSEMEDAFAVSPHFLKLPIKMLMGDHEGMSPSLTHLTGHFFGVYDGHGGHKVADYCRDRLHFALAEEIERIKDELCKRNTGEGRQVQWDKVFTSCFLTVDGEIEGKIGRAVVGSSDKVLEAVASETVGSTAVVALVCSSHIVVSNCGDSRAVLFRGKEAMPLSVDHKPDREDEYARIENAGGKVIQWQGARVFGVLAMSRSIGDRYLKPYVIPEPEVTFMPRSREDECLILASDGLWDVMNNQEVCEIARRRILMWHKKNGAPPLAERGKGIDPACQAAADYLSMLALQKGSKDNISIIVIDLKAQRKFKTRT
Kind of data set: cell-based or functional assay.

Data set [5] has as its system PP2CA. Kind of data set: Yeast two hybrid (Y2H) growth assay with PP2CA. It counts as cell-based, Arabidopsis. The following applies: for interaction with PP2CA in Y2H assay: absence of ABA, growth on medium lacking His and Ade. The protocol:
We conducted error-prone PCR mutagenesis by amplification of the PYL4 open reading frame using the following primers: FPYL4Ncol, 5″-GCAGCAGCCATGGTTGCCG TTCACCGTCCTTCT and RPYL4EcoRIstop: […] TCT TCTTCTT, and the following conditions: 2 mM dGTP, dCTP and dTTP, 0.5 mM dATP, 12 mM MgCl2 and Taq polymerase. The PCR product was Ncol-EcoRI doubly digested, cloned into the pGBKT7 vector and DH10B cells were transformed by electroporation. Thus, we generated an allele library in E. coli of approximately 10,000 PYL4 mutant clones. […] The library was shuttled to yeast AH109 by co-transformation with pGAD7-PP2CA. Yeast transformants were pooled and clones able to grow in the absence of exogenous ABA in medium lacking histidine and adenine were selected. Yeast plasmids were extracted, sequenced and retransformed in yeast cells to recapitulate the phenotype. Protocols for yeast two hybrid assays were similar to those described previously (Saez et al., 2008).

Data set [6] deals with T5, PP2CA (Arabidopsis thaliana, UniProt O80920+P49598, C176R/F130Y).
T5 construct: made in house; host or cells: E. coli BL21 (DE3)
Kind of data set: In vitro phosphatase activity assay with pNPP substrate, PP2CA. It counts as biochemical. The following applies: presence of ABA. As to the method: (§1) Phosphatase activity was measured using as a substrate either pNPP or phosphorylated ΔC-ABF2, ΔC-ABI5 and SLAC11-186 proteins. For the pNPP substrate, assays were performed in a 100 μl solution containing 25 mM Tris-HCl pH 7.5, 2 mM MnCl2 and 5 mM pNPP. Assays contained 2 μM phosphatase (PP2CA or HAB1), 4 μM receptor and the indicated concentrations of ABA. Phosphatase activity was recorded with a ViktorX5 reader at 405 nm every 60 seconds over 30 minutes and the activity obtained after 30 minutes is indicated in the graphics. In order to obtain phosphorylated ΔCABF2, ΔC-ABI5 and SLAC11-186 proteins, OST1 phosphorylation assays were done basically as described previously (Dupeux et al., 2011 b). ΔC-ABF2 and SLAC11-186 N-terminal fragments were prepared as described (Antoni et al., 2012; Vahisalu et al., 2010). ΔC-ABI5 recombinant protein (amino acid residues 1-200, containing the C1, C2 and C3 target sites of ABA-activated SnRK2s) was expressed in the pETM11 vector as described above. The reaction mixture containing the OST1 kinase and either ΔCABF2, ΔC-ABI5 or SLAC11-186 recombinant proteins were incubated for 50 min at room temperature in 30 μl of kinase buffer: 20 mM Tris-HCl pH 7.8, 20 mM MgCl2, 2 mM MnCl2, and 3.5 μCi of γ-32ATP (3000 Ci/mmol). Thus, OST1 was autophosphorylated and in turn it phosphorylated ΔC-ABF2, ΔC-ABI5 and SLAC11-186 proteins. Next, they were used as substrates of PP2CA that was preincubated (or not) for 10 with PYL4 or PYL4A194T (1:10 phosphatase:receptor ratio) either in the absence or presence of 30 μM ABA. The reaction was stopped by adding Laemmli buffer and the proteins were separated by SDS-PAGE using an 8% acrylamide gel and transferred to an Immobilon-P membrane (Millipore). Radioactivity was detected and quantified using a Phosphorimage system (FLA5100, Fujifilm). After scanning, the same membrane was used for Ponceau staining. The data presented are averages of at least three independent experiments.

Data set [7] has as its system PP2CA. The description is as above. It counts as biochemical, Arabidopsis. The following applies: absence of ABA. The protocol: as §1
The subject of data set [8] is Arabidopsis thaliana plants. Kind of data set: Seedling establishment and early seedling growth of OE lines on ABA. It counts as in vivo. The following applies: 0.25 or 0.5 μM ABA. From the text: PYL4 or PYL4 mutants were cloned into pCR8/GW/TOPO entry vector (Invitrogen) and recombined by LR reaction into the gateway compatible ALLIGATOR2 vector (Bensmihen et al., 2004). This construct drives expression of PYL4 under control of the 35S CaMV promoter and introduces a triple HA epitope at the N-terminus of the protein. Selection of transgenic lines is based on the visualization of GFP in seeds, whose expression is driven by the specific seed promoter At2S3. The ALLIGATOR2-35S:3HA-PYL4 or mutant constructs were transferred to Agrobacterium tumefaciens C58C1 (pGV2260) (Deblaere et al., 1985) by electroporation and used to transform Columbia wild type plants by the floral dip method. T1 transgenic seeds were selected based on GFP visualization and sowed in soil to obtain the T2 generation. At least three independent transgenic lines were generated for each construct. Homozygous T3 progeny was used for further studies and expression of HA-tagged protein in 21-d-old seedlings was verified by immunoblot analysis using anti-HA-peroxidase (Roche).
After surface sterilization of the seeds, stratification was conducted in the dark at 4° C. for 3 d. Approximately 100 seeds of each genotype were sowed on MS plates supplemented with different ABA concentrations per experiment. To score seed germination, radical emergence was analyzed at 72 h after sowing. Seedling establishment was scored as the percentage of seeds that developed green expanded cotyledons and the first pair of true leaves at 7-d.

The target of data set [9] is T3, PP2CA (clade A protein phosphatase 2C, …). Kind of data set: yeast two-hybrid growth assay, presence of ABA.
Data set [10] has the same target. Description: yeast two-hybrid growth assay, absence of ABA.

B1: PP2CA (clade A protein phosphatase 2C, At3g11410) (protein)
chain: MAGICCGVVGETEPAAPVDSTSRASLRRRLDLLPSIKIVADSAVAPPLENCRKRQKRETVVLSTLPGNLDLDSNVRSENKKARSAVTNSNSVTEAESFFSDVPKIGTTSVCGRRRDMEDAVSIHPSFLQRNSENHHFYGVFDGHGCSHVAEKCRERLHDIVKKEVEVMASDEWTETMVKSFQKMDKEVSQRECNLVVNGATRSMKNSCRCELQSPQCDAVGSTAVVSVVTPEKIIVSNCGDSRAVLCRNGVAIPLSVDHKPDRPDELIRIQQAGGRVIYWDGARVLGVLAMSRAIGDNYLKPYVIPDPEVTVTDRTDEDECLILASDGLWDVVPNETACGVARMCLRGAGAGDDSDAAHNACSDAALLLTKLALARQSSDNVSVVVVDLRKRRNNQASS
Turning to B1, the “PP2CA phosphatase activity (pNPP substrate) in the absence of ABA” value was “although the H82RV97A and F130Y C176R mutations promoted ABA-independent interactions in Y2H assay, they did not affect PP2CA activity in the absence of ABA” in [1]; “although the H82RV97A and F130Y C176R mutations promoted ABA-independent interactions in Y2H assay, they did not affect PP2CA activity in the absence of ABA” in data set [2].

B2: AtPYL4 wild type polypeptide (At2g38310) (receptor)
chain: MLAVHRPSSAVSDGDSVQIPMMIASFQKRFPSLSRDSTAARFHTHEVGPNQCCSAVIQEISAPISTVWSVVRRFDNPQAYKHFLKSCSVIGGDGDNVGSLRQVHVVSGLPAASSTERLDILDDERHVISFSVVGGDHRLSNYRSVTTLHPSPISGTVVVESYVVDVPPGNTKEETCDFVDVIVRCNLQSLAKIAENTAAESKKKMSL
Regarding B2, the “IC50 of inhibition of PP2CA phosphatase activity (pNPP substrate; 2 µM phosphatase, 4 µM receptor, ABA concentration varied)” value in [3] was 1 µM. For the same molecule, the “IC50 of inhibition of HAB1 phosphatase activity (pNPP substrate; 2 µM phosphatase, 4 µM receptor, ABA concentration varied)” value in [4] was 0.25 µM.

B3: PYL4C176R F130Y: AtPYL4 mutant polypeptide with F130Y and C176R substitutions (SEQ ID NO. 63) (protein, listed as Arabidopsis thaliana)
chain: MLAVHRPSSAVSDGDSVQIPMMIASFQKRFPSLSRDSTAARFHTHEVGPNQCCSAVIQEISAPISTVWSVVRRFDNPQAYKHFLKSCSVIGGDGDNVGSLRQVHVVSGLPAASSTERLDILDDERHVISYSVVGGDHRLSNYRSVTTLHPSPISGTVVVESYVVDVPPGNTKEETRDFVDVIVRCNLQSLAKIAENTAAESKKKMSL
Regarding B3, the “interaction with PP2CA in Y2H assay” value with PP2CA [5] is “enhanced the interaction of PYL4 and PP2CA in the absence of ABA”. In addition, the “capacity to inhibit PP2CA” value in the data set with PP2CA [6] is listed as “lower capacity to inhibit PP2CA”. The “effect on PP2CA activity” value in the data set with PP2CA [7] is on record as “did not affect PP2CA activity”.

B4: PYL4V97A (AtPYL V97A) (receptor)
chain: MLAVHRPSSAVSDGDSVQIPMMIASFQKRFPSLSRDSTAARFHTHEVGPNQCCSAVIQEISAPISTVWSVVRRFDNPQAYKHFLKSCSVIGGDGDNAGSLRQVHVVSGLPAASSTERLDILDDERHVISFSVVGGDHRLSNYRSVTTLHPSPISGTVVVESYVVDVPPGNTKEETCDFVDVIVRCNLQSLAKIAENTAAESKKKMSL
Consider B4, for which the “interaction with PP2CA in Y2H assay” value in the data set on PP2CA [5] was “did not affect the interaction in the absence of ABA”. For the same molecule, the “yeast growth in Y2H assay with PP2CA” value in the data set on PP2CA [5] (presence of ABA (50 μM)) is “increased yeast growth”. Also, the “ABA-mediated inhibition of seedling establishment” value in [8] is “enhanced ABA-mediated inhibition of seedling establishment compared to non-transformed plants”. Also, the binding result in data set [9] was “binds”.

B5: PYL4C176R F130Y (AtPYL F130Y and C176R) (receptor)
chain: MLAVHRPSSAVSDGDSVQIPMMIASFQKRFPSLSRDSTAARFHTHEVGPNQCCSAVIQEISAPISTVWSVVRRFDNPQAYKHFLKSCSVIGGDGDNVGSLRQVHVVSGLPAASSTERLDILDDERHVISYSVVGGDHRLSNYRSVTTLHPSPISGTVVVESYVVDVPPGNTKEETRDFVDVIVRCNLQSLAKIAENTAAESKKKMSL
notes: also called F130Y C176R
Regarding B5, the binding result in [10] is “binds”.
